T1: WT1 peptide on HLA-A*02:01 (human)
T1 peptide: VLDFAPPGA

B1: TCR of Patient 1, alpha 1 and beta (growing colony) (TCR, V domains shown)
Valpha: AQSVAQPEDQVNVAEGNPLTVKCTYSVSGNPYLFWYVQYPNRGLQFLLKYITGDNLVKGSYGFEAEFNKSQTSFHLKKPSALVSDSALYFCAVRDGGATNKLIFGTGTLLAVQP
Vbeta: EAQVTQNPRYLITVTGKKLTVTCSQNMNHEYMSWYRQDPGLGLRQIYYSMNVEVTDKGDVPEGYKVSRKEKRNFPLILESPSPNQTSLYFCASSTLGGELFFGEGSRLTVL
B2: TCR of Patient 2, alpha 1 and beta 1 (TCR, V domains shown)
Valpha: AQSVTQLDSQVPVFEEAPVELRCNYSSSVSVYLFWYVQYPNQGLQLLLKYLSGSTLVESINGFEAEFNKSQTSFHLRKPSVHISDTAEYFCAVTLLSIEPSAGGYQKVTFGIGTKLQVIP
Vbeta: DTGVSQNPRHKITKRGQNVTFRCDPISEHNRLYWYRQTLGQGPEFLTYFQNEAQLEKSRLLSDRFSAERPKGSFSTLEIQRTEQGDSAMYLCASSLEGRAMPRDSHQETQYFGPGTRLLVL
B3: TCR of Patient 2, alpha 1 and beta 2 (TCR, V domains shown)
Valpha: B2 Valpha
Vbeta: DAMVIQNPRYQVTQFGKPVTLSCSQTLNHNVMYWYQQKSSQAPKLLFHYYDKDFNNEADTPDNFQSRRPNTSFCFLDIRSPGLGDAAMYLCATSWGLNEQYFGPGTRLTVT
B4: TCR of Patient 2, alpha 2 and beta 1 (TCR, V domains shown)
Valpha: GENVEQHPSTLSVQEGDSAVIKCTYSDSASNYFPWYKQELGKRPQLIIDIRSNVGEKKDQRIAVTLNKTAKHFSLHITETQPEDSAVYFCAATSRDDMRFGAGTRLTVKP
Vbeta: B2 Vbeta
B5: TCR of Patient 2, alpha 2 and beta 2 (TCR, V domains shown)
Valpha: B4 Valpha
Vbeta: B3 Vbeta
B6: TCR of Patient 3, alpha 1 and beta (TCR, V domains shown)
Valpha: AQKVTQAQTEISVVEKEDVTLDCVYETRDTTYYLFWYKQPPSGELVFLIRRNSFDEQNEISGRYSWNFQKSTSSFNFTITASQVVDSAVYFCALPDKVIFGPGTSLSVIP
Vbeta: DSGVTQTPKHLITATGQRVTLRCSPRSGDLSVYWYQQSLDQGLQFLIQYYNGEERAKGNILERFSAQQFPDLHSELNLSSLELGDSALYFCASSVSAGSTGELFFGEGSRLTVL
B7: TCR of Patient 3, alpha 2 and beta (TCR, V domains shown)
Valpha: GQQLNQSPQSMFIQEGEDVSMNCTSSSIFNTWLWYKQEPGEGPVLLIALYKAGELTSNGRLTAQFGITRKDSFLNISASIPSDVGIYFCAGLYATNKLIFGTGTLLAVQP
Vbeta: B6 Vbeta

Molecular target: T1, WT1 peptide on HLA-A*02:01
Experiment: multimer staining

Does B1 bind?
Result: recognises

Does B2 bind?
Result: recognises

Does B3 bind?
Result: recognises

Does B4 bind?
Result: recognises

Does B5 bind?
Result: recognises

Does B6 bind?
Result: recognises

Does B7 bind?
Result: recognises
